Laboratory results as given in US20050221287A1 (CONSEJO SUPERIOR DE INVESTIGACIONES CIENTIFICAS PHARMACIA …, published 2005).

How the values were obtained:
STAT2 = STAT2 (human, UniProt P52630 1-851); assay: association with CXCR4 in CXCL12-stimulated IM-9 cells
JAK1 = biological target: T1, JAK1 (human, UniProt P23458 1-1154); assay: as above
T1 construct: Endogenous protein of IM-9 cell lysates

STAT1 = biological target: T2, STAT1 (human, UniProt P42224 2-750, limits assumed); assay: as above
T2 sequence (looked up): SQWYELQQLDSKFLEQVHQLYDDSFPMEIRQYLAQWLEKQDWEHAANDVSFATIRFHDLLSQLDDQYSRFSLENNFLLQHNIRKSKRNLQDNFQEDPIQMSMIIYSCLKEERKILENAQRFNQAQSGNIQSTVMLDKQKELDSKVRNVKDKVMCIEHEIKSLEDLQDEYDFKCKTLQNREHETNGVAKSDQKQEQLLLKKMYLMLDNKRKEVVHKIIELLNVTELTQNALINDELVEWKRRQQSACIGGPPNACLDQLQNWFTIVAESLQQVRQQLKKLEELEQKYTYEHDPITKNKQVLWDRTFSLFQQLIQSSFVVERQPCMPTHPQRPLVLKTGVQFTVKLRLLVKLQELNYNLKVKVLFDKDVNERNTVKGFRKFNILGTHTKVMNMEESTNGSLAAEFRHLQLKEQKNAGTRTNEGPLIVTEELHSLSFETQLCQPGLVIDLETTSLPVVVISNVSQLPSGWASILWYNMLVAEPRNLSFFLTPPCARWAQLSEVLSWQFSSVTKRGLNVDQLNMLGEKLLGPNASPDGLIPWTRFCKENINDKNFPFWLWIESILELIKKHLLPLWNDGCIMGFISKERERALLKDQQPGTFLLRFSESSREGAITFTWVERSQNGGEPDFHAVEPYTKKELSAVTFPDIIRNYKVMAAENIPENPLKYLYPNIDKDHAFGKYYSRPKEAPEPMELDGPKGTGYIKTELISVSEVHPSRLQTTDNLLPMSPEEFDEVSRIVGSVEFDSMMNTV

STAT3 = STAT3 (human, UniProt P40763 2-770, limits assumed); assay: as above
STAT6 = biological target: T3, STAT6 (human, UniProt P42226 2-847); assay: association with CXCR4 in CXCL12-stimulated IM-9 cells (data not shown)
T3 sequence (looked up): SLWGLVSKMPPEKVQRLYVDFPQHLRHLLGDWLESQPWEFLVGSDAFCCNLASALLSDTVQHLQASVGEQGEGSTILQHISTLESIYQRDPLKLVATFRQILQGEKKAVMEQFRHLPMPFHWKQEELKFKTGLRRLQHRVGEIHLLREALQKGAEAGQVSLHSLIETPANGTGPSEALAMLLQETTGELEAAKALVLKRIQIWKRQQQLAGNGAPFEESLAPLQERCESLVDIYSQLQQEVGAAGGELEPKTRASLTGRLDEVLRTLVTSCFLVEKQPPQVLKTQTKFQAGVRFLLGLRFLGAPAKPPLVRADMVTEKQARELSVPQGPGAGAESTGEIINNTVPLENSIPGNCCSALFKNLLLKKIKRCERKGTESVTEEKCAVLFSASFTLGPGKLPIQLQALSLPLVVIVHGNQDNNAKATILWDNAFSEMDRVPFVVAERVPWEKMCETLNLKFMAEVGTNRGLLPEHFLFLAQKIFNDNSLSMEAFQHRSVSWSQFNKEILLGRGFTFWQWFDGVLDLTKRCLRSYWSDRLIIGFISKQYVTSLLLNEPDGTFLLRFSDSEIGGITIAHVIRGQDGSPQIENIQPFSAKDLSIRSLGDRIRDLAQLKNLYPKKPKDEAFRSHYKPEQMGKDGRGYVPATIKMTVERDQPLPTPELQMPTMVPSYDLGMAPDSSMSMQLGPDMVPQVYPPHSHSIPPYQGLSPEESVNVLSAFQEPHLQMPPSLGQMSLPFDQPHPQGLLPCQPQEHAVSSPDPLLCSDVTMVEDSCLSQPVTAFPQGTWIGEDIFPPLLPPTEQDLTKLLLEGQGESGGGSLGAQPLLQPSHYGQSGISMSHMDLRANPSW

STAT4 = biological target: T4, STAT4 (human, UniProt Q14765 1-748); assay: as above
T4 sequence (looked up): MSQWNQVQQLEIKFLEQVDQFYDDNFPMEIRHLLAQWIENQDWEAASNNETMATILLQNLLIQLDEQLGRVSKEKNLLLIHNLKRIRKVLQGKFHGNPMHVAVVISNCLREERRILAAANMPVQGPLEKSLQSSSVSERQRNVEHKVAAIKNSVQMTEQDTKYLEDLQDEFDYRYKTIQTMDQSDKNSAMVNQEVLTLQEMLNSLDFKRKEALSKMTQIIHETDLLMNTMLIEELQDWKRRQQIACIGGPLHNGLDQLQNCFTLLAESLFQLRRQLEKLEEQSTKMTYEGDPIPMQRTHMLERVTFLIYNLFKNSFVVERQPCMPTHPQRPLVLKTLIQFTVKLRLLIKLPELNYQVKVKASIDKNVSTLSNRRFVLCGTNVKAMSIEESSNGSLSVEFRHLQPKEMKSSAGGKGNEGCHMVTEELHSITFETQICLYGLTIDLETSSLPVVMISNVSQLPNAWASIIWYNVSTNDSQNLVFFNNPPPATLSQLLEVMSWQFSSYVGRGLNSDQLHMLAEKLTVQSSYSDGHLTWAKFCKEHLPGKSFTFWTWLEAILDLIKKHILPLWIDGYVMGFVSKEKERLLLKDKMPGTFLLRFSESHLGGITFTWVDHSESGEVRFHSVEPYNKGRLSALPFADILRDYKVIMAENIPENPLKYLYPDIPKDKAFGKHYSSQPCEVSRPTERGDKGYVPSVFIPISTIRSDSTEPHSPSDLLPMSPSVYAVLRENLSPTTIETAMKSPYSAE

STAT2, sequence (P52630 whole entry): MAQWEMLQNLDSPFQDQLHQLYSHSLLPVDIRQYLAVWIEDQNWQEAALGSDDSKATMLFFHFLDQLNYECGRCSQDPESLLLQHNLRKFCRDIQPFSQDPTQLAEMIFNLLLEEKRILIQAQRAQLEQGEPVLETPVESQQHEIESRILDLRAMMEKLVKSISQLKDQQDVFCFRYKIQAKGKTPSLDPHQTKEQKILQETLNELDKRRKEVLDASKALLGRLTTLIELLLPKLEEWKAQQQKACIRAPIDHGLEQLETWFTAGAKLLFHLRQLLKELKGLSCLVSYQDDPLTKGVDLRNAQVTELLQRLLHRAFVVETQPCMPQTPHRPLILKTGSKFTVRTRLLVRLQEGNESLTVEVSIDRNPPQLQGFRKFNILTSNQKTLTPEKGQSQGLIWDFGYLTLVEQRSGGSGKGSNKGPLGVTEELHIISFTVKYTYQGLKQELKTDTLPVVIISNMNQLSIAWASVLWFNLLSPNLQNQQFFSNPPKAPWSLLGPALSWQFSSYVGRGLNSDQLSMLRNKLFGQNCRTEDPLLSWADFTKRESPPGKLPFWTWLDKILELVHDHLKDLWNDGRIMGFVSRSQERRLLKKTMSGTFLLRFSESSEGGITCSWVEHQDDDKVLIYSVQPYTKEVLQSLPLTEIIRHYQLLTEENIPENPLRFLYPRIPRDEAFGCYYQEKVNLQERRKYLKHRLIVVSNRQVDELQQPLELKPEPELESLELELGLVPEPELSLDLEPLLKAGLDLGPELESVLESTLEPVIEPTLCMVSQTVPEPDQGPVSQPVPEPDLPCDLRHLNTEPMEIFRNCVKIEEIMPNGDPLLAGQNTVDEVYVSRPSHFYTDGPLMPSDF
STAT3, sequence (P40763 2-770 limits assumed): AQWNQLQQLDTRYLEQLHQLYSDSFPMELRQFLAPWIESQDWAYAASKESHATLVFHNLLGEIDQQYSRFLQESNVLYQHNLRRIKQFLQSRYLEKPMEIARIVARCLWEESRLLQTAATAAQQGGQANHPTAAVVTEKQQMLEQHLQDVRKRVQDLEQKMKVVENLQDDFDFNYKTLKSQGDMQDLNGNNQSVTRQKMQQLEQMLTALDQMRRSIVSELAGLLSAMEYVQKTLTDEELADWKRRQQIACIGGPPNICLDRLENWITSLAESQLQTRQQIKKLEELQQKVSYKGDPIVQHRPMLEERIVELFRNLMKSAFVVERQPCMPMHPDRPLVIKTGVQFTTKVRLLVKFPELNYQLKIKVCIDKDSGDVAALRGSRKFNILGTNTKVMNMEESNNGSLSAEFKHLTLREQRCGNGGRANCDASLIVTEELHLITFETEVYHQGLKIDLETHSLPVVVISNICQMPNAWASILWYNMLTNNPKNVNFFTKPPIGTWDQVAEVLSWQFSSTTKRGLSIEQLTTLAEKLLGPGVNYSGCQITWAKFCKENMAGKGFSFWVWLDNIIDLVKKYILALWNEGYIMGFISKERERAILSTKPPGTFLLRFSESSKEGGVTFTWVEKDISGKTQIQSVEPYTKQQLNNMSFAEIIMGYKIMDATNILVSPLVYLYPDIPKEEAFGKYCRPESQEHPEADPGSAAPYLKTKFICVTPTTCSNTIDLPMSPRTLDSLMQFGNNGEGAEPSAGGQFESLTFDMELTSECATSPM
T1 sequence (P23458 whole entry): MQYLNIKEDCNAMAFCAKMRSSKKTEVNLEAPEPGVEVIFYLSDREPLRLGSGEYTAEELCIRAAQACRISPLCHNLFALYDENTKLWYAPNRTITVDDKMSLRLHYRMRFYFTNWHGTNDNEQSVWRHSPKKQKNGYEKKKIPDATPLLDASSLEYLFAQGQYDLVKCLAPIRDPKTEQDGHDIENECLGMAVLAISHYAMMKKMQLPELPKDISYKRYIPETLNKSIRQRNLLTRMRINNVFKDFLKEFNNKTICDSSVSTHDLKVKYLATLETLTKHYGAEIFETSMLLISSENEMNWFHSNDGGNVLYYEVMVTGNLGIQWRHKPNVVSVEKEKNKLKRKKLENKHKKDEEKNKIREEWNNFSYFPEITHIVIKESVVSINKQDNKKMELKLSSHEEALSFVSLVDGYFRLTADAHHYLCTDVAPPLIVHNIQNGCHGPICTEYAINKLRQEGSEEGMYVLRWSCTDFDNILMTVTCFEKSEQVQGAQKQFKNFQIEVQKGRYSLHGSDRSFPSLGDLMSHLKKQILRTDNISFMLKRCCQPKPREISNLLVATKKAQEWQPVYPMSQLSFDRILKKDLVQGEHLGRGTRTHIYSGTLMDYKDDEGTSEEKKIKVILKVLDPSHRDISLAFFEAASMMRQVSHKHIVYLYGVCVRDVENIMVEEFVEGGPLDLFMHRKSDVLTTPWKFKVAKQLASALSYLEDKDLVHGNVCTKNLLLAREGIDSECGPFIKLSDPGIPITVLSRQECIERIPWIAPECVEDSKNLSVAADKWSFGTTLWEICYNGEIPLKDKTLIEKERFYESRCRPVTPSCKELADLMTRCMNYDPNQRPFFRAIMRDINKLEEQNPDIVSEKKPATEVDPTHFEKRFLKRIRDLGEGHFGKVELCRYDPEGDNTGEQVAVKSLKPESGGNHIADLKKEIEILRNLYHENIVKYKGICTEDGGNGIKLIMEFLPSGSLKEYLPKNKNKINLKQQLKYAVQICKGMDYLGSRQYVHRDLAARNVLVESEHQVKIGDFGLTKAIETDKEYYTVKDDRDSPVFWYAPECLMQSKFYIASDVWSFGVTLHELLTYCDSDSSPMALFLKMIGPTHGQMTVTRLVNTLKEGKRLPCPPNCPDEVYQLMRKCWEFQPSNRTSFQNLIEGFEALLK

B1: CXCR4 (receptor, human, UniProt P61073 1-352, looked up)
chain: MEGISIYTSDNYTEEMGSGDYDSMKEPCFREENANFNKIFLPTIYSIIFLTGIVGNGLVILVMGYQKKLRSMTDKYRLHLSVADLLFVITLPFWAVDAVANWYFGNFLCKAVHVIYTVNLYSSVLILAFISLDRYLAIVHATNSQRPRKLLAEKVVYVGVWIPALLLTIPDFIFANVSEADDRYICDRFYPNDLWVVVFQFQHIMVGLILPGIVILSCYCIIISKLSHSKGHQKRKALKTTVILILAFFACWLPYYIGISIDSFILLEIIKQGCEFENTVHKWISITEALAFFHCCLNPILYAFLGAKFKTSAQHALTSVSRGSSLKILSKGKRGGHSSVSTESESSSFHSS
notes: whole, on cells; Endogenous receptor of IM-9 cells: on the cell surface in flow cytometry, immunoprecipitated from digitonin lysates in the co-immunoprecipitations; also called CXCR4 receptor; the CXCR4
binding result (STAT2): binds | binding result (JAK1): binds | binding result (STAT1): binds | binding result (STAT3): binds | binding result (STAT6): no binding | binding result (STAT4): no binding
